# From patent US20230002480A1
# Assays:
# Experiment in all cases: cell-based or functional assay
# [1] = target: HIV-1 Env of pseudovirus 3016.v5.c45 (HIV-1)
# [2] = target: HIV-1 Env of pseudovirus T257-31 (HIV-1)
# [3] = target: HIV-1 Env of pseudovirus CNE5 (HIV-1)
# [4] = target: HIV-1 Env of pseudovirus 3103.v3.c10 (HIV-1)
# [5] = target: HIV-1 Env of pseudovirus 6540.v4.c1 (HIV-1)
# [6] = target: HIV-1 Env of pseudovirus R3265.c06 (HIV-1)
# [7] = target: HIV-1 Env of pseudovirus 620345.c01 (HIV-1)
# [8] = target: HIV-1 Env of pseudovirus 6041.v3.c23 (HIV-1)
# [9] = target: HIV-1 Env of pseudovirus T255-34 (HIV-1)
# [10] = target: HIV-1 Env of pseudovirus 211-9 (HIV-1)
# [11] = target: HIV-1 Env of pseudovirus CNE8 (HIV-1)
# [12] = target: HIV-1 Env of pseudovirus BJOX028000.10.3 (HIV-1)
# [13] = target: HIV-1 Env of pseudovirus X1632_S2_B10 (HIV-1)
# [14] = target: HIV-1 Env of pseudovirus A07412M1.vrc12 (HIV-1)
# [15] = target: HIV-1 Env of pseudovirus 89-F1_2_25 (HIV-1)
# [16] = target: HIV-1 Env of pseudovirus X1193_c1 (HIV-1)
# [17] = target: HIV-1 Env of pseudovirus R1166.c01 (HIV-1)
substance,measurement,setting,value
N49P7.2 (antibody),IC50,[1],2.77 µg/mL
same,IC80,[1],23.9 µg/mL
same,MPI,[1],90
same,IC50,[2],0.627 µg/mL
same,IC80,[2],1.79 µg/mL
same,MPI,[2],100
same,IC50,[3],0.206 µg/mL
same,IC80,[3],0.893 µg/mL
same,MPI,[3],100
same,IC50,[4],0.222 µg/mL
same,IC80,[4],0.57 µg/mL
same,MPI,[4],100
same,IC50,[5],> 50 µg/mL
same,IC80,[5],> 50 µg/mL
same,MPI,[5],33
same,IC50,[6],0.153 µg/mL
same,IC80,[6],0.985 µg/mL
same,MPI,[6],100
same,IC50,[7],> 50 µg/mL
same,IC80,[7],> 50 µg/mL
same,MPI,[7],0
same,IC50,[8],0.309 µg/mL
same,IC80,[8],5.11 µg/mL
same,MPI,[8],94
same,IC50,[9],0.167 µg/mL
same,IC80,[9],0.527 µg/mL
same,MPI,[9],100
same,IC50,[10],0.363 µg/mL
same,IC80,[10],1.22 µg/mL
same,MPI,[10],100
same,IC50,[11],0.073 µg/mL
same,IC80,[11],0.24 µg/mL
same,MPI,[11],100
same,IC50,[12],0.322 µg/mL
same,IC80,[12],1.49 µg/mL
same,MPI,[12],100
same,IC50,[13],> 50 µg/mL
same,IC80,[13],> 50 µg/mL
same,MPI,[13],22
same,IC50,[14],0.768 µg/mL
same,IC80,[14],2.32 µg/mL
same,MPI,[14],100
same,IC50,[15],> 50 µg/mL
same,IC80,[15],> 50 µg/mL
same,MPI,[15],18
same,IC50,[16],0.014 µg/mL
same,IC80,[16],0.101 µg/mL
same,MPI,[16],100
same,IC50,[17],0.267 µg/mL
same,IC80,[17],0.852 µg/mL
same,MPI,[17],100
N49P18.1 (antibody),IC50,[1],> 50 µg/mL
same,IC80,[1],> 50 µg/mL
same,MPI,[1],49
same,IC50,[2],> 50 µg/mL
same,IC80,[2],> 50 µg/mL
same,MPI,[2],48
same,IC50,[3],19.5 µg/mL
same,IC80,[3],> 50 µg/mL
same,MPI,[3],72
same,IC50,[4],8.56 µg/mL
same,IC80,[4],32.4 µg/mL
same,MPI,[4],93
same,IC50,[5],> 50 µg/mL
same,IC80,[5],> 50 µg/mL
same,MPI,[5],35
same,IC50,[6],27.9 µg/mL
same,IC80,[6],> 50 µg/mL
same,MPI,[6],66
same,IC50,[7],> 50 µg/mL
same,IC80,[7],> 50 µg/mL
same,MPI,[7],0
same,IC50,[8],3.05 µg/mL
same,IC80,[8],12.2 µg/mL
same,MPI,[8],96
same,IC50,[9],10.4 µg/mL
same,IC80,[9],33.8 µg/mL
same,MPI,[9],90
same,IC50,[10],18.3 µg/mL
same,IC80,[10],> 50 µg/mL
same,MPI,[10],73
same,IC50,[11],16.2 µg/mL
same,IC80,[11],44.7 µg/mL
same,MPI,[11],83
same,IC50,[12],34 µg/mL
same,IC80,[12],> 50 µg/mL
same,MPI,[12],64
same,IC50,[13],> 50 µg/mL
same,IC80,[13],> 50 µg/mL
same,MPI,[13],19
same,IC50,[14],41.3 µg/mL
same,IC80,[14],> 50 µg/mL
same,MPI,[14],54
same,IC50,[15],> 50 µg/mL
same,IC80,[15],> 50 µg/mL
same,MPI,[15],9
same,IC50,[16],3.12 µg/mL
same,IC80,[16],23.9 µg/mL
same,MPI,[16],94
same,IC50,[17],19.2 µg/mL
same,IC80,[17],> 50 µg/mL
same,MPI,[17],78
